Assay results published in patent US20150344570A1 (published 2015).

T1: FcγRIIb extracellular domain with C-terminal His tag (human, UniProt P31994 43-217)
T1 construct: extracellular domain; Soluble receptor used as analyte in Biacore; also called FcgRIIb
T1 sequence (looked up): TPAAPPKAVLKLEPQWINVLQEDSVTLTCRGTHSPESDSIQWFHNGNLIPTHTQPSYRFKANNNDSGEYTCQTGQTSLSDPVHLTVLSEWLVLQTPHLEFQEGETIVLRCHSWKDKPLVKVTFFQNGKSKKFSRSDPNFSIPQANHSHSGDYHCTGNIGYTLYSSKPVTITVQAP

T2: FcγRIIb extracellular domain with C-terminal His tag (human, UniProt P31994 43-217)
T2 construct: extracellular domain; also called FcgRIIb; 2b; not shown: His tag attached to the C terminus
T2 sequence (looked up): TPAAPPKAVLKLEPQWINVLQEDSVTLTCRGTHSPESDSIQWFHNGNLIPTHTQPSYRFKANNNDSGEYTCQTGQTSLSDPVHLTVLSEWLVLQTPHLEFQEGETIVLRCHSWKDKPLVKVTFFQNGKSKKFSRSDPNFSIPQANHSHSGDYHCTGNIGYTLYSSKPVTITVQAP

B1: GpH7-A5/GpH7-B3 variant L328_07I/GpL16-k0 (antibody, human IgG1, kappa)
heavy 1: not shown
heavy 2: not shown
light: DIVMTQSPLSLPVTPGEPASISCQASESLVHSNRNTYLHWYLQKPGQSPQLLIYKVSNRFSGVPDRFSGSGSGTDFTLKISRVEAEDVGVYYCSQNTHVPPTFGQGTKVEIERTVAAPSVFIFPPSDEQLKSGTASVVCLLNNFYPREAKVQWKVDNALQSGNSQESVTEQDSKDSTYSLSSTLTLSKADYEKHKVYACEVTHQGLSSPVTKSFNRGEC
notes: Heterodimerized IgG1, mutation in the GpH7-B3 chain only; also called He Ab
B2: GpH7-A5/GpH7-B3 variant L328_07I/GpL16-k0 (He Ab) (antibody, human IgG1, kappa)
heavy 1: not shown
heavy 2: not shown
light: DIVMTQSPLSLPVTPGEPASISCQASESLVHSNRNTYLHWYLQKPGQSPQLLIYKVSNRFSGVPDRFSGSGSGTDFTLKISRVEAEDVGVYYCSQNTHVPPTFGQGTKVEIERTVAAPSVFIFPPSDEQLKSGTASVVCLLNNFYPREAKVQWKVDNALQSGNSQESVTEQDSKDSTYSLSSTLTLSKADYEKHKVYACEVTHQGLSSPVTKSFNRGEC
notes: Heterodimerized antibody with the alteration in one H chain only
B3: GpH7-A5/GpH7-B3 variant L328_09D/GpL16-k0 (He Ab) (antibody, human IgG1, kappa)
heavy 1: not shown
heavy 2: not shown
light: DIVMTQSPLSLPVTPGEPASISCQASESLVHSNRNTYLHWYLQKPGQSPQLLIYKVSNRFSGVPDRFSGSGSGTDFTLKISRVEAEDVGVYYCSQNTHVPPTFGQGTKVEIERTVAAPSVFIFPPSDEQLKSGTASVVCLLNNFYPREAKVQWKVDNALQSGNSQESVTEQDSKDSTYSLSSTLTLSKADYEKHKVYACEVTHQGLSSPVTKSFNRGEC
notes: as for B2
B4: GpH7-A5/GpH7-B3 variant L328_13S/GpL16-k0 (He Ab) (antibody, human IgG1, kappa)
heavy 1: not shown
heavy 2: not shown
light: DIVMTQSPLSLPVTPGEPASISCQASESLVHSNRNTYLHWYLQKPGQSPQLLIYKVSNRFSGVPDRFSGSGSGTDFTLKISRVEAEDVGVYYCSQNTHVPPTFGQGTKVEIERTVAAPSVFIFPPSDEQLKSGTASVVCLLNNFYPREAKVQWKVDNALQSGNSQESVTEQDSKDSTYSLSSTLTLSKADYEKHKVYACEVTHQGLSSPVTKSFNRGEC
notes: as for B2
B5: GpH7-A5/GpH7-B3 variant L328_19Q/GpL16-k0 (He Ab) (antibody, human IgG1, kappa)
heavy 1: not shown
heavy 2: not shown
light: DIVMTQSPLSLPVTPGEPASISCQASESLVHSNRNTYLHWYLQKPGQSPQLLIYKVSNRFSGVPDRFSGSGSGTDFTLKISRVEAEDVGVYYCSQNTHVPPTFGQGTKVEIERTVAAPSVFIFPPSDEQLKSGTASVVCLLNNFYPREAKVQWKVDNALQSGNSQESVTEQDSKDSTYSLSSTLTLSKADYEKHKVYACEVTHQGLSSPVTKSFNRGEC
notes: as for B2
B6: GpH7-A5/GpH7-B3 variant L328_20W/GpL16-k0 (He Ab) (antibody, human IgG1, kappa)
heavy 1: not shown
heavy 2: not shown
light: DIVMTQSPLSLPVTPGEPASISCQASESLVHSNRNTYLHWYLQKPGQSPQLLIYKVSNRFSGVPDRFSGSGSGTDFTLKISRVEAEDVGVYYCSQNTHVPPTFGQGTKVEIERTVAAPSVFIFPPSDEQLKSGTASVVCLLNNFYPREAKVQWKVDNALQSGNSQESVTEQDSKDSTYSLSSTLTLSKADYEKHKVYACEVTHQGLSSPVTKSFNRGEC
notes: as for B2
B7: GpH7-A5/GpH7-B3 variant P331_07I/GpL16-k0 (He Ab) (antibody, human IgG1, kappa)
heavy 1: not shown
heavy 2: not shown
light: DIVMTQSPLSLPVTPGEPASISCQASESLVHSNRNTYLHWYLQKPGQSPQLLIYKVSNRFSGVPDRFSGSGSGTDFTLKISRVEAEDVGVYYCSQNTHVPPTFGQGTKVEIERTVAAPSVFIFPPSDEQLKSGTASVVCLLNNFYPREAKVQWKVDNALQSGNSQESVTEQDSKDSTYSLSSTLTLSKADYEKHKVYACEVTHQGLSSPVTKSFNRGEC
notes: as for B2
B8: GpH7-A5/GpH7-B3 variant P331_15Y/GpL16-k0 (He Ab) (antibody, human IgG1, kappa)
heavy 1: not shown
heavy 2: not shown
light: DIVMTQSPLSLPVTPGEPASISCQASESLVHSNRNTYLHWYLQKPGQSPQLLIYKVSNRFSGVPDRFSGSGSGTDFTLKISRVEAEDVGVYYCSQNTHVPPTFGQGTKVEIERTVAAPSVFIFPPSDEQLKSGTASVVCLLNNFYPREAKVQWKVDNALQSGNSQESVTEQDSKDSTYSLSSTLTLSKADYEKHKVYACEVTHQGLSSPVTKSFNRGEC
notes: as for B2

Assays:
[1] = biological target: T3, FcγRIa extracellular domain with C-terminal His tag (human, UniProt P12314 16-292); experiment: ratio He/Con_1a : He/Con_2b (FcγRIa over FcγRIIb), SPR (Biacore)
T3 construct: extracellular domain; Soluble receptor used as analyte in Biacore; also called FcgRI

[2] = biological target: T3, FcγRIa extracellular domain with …; experiment: SPR (Biacore), antibody captured, FcγR as analyte; binding relative to GpH7-A5/GpH7-B3/GpL16-k0 = 100
[3] = biological target: T1, FcγRIIb extracellular domain with …; experiment: as above
[4] = biological target: T2, FcγRIIb extracellular domain with …; experiment: SPR (Biacore), antibody captured on antigen peptide chip, FcγR as analyte; relative binding
Protocol: (§1) The heterodimerized antibodies He Abs in which one of the H chains was introduced with an alteration were assayed for their binding activities to each activating FcγR and inhibitory FcγR according to the method described in Example 4. […] The activating FcγRs in FIGS. 26, 27, 28, and 29 are FcγRIa, FcγRIIa (R), FcγRIIa (H), and FcγRIIIa, respectively.
(§2) Analysis of interaction between objective antibody and the FcγR was carried out using Biacore T100 (GE Healthcare). HBS-EP+ (GE Healthcare) was used as the running buffer, and the measurement temperature was set to 25° C. Chips produced by immobilizing the antigen peptide by the amine coupling method to a Series S Sencor Chip CM5 (GE Healthcare), or alternatively, chips produced by allowing preliminarily biotinylated antigen peptides to interact with and immobilize onto a Series S Sensor Chip SA (certified) (GE Healthcare) were used. Antibodies of interest were captured onto an antigen peptide-immobilized chip, and allowed to interact to each FcγR diluted with running buffer. To regenerate and repeatedly use the chip, the antibodies captured on the chip were washed off by reacting 10 mM glycine-HCl, pH 1.5.

[5] = biological target: T4, FcγRIIIa extracellular domain with C-terminal His tag (human, UniProt P08637 17-208); experiment: as above
T4 construct: extracellular domain; also called FcgRIIIa; 3a; not shown: His tag attached to the C terminus
Protocol: as §1, §2

T4 sequence (P08637 17-208): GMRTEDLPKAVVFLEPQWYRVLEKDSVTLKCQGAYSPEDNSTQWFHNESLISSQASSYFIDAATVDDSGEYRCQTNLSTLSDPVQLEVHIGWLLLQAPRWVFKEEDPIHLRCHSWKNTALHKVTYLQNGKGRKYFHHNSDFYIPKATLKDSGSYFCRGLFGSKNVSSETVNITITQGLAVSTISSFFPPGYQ
T3 sequence (P12314 16-292): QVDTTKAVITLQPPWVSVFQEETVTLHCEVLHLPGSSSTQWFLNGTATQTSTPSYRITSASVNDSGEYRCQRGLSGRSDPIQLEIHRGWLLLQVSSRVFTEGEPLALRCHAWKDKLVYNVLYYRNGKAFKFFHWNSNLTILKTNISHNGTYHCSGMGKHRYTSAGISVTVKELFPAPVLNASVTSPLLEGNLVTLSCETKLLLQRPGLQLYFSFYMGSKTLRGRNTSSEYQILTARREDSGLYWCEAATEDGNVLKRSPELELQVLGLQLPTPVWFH

He_1a/2b (Ia/IIb) [1]	He/Con_1a [2] [control = 100]	He/Con_2b [3] [control = 100]	He/Con_2b [4]	He/Con_3a [5]	Binder
0.62	99.4	160			B1
			160 % of GpH7-A5/GpH7-B3/GpL16-k0 (=100)	84 % of GpH7-A5/GpH7-B3/GpL16-k0 (=100)	B2
			199 % of GpH7-A5/GpH7-B3/GpL16-k0 (=100)	47.8 % of GpH7-A5/GpH7-B3/GpL16-k0 (=100)	B3
			149 % of GpH7-A5/GpH7-B3/GpL16-k0 (=100)	71.7 % of GpH7-A5/GpH7-B3/GpL16-k0 (=100)	B4
			105 % of GpH7-A5/GpH7-B3/GpL16-k0 (=100)	81.1 % of GpH7-A5/GpH7-B3/GpL16-k0 (=100)	B5
			235 % of GpH7-A5/GpH7-B3/GpL16-k0 (=100)	37.4 % of GpH7-A5/GpH7-B3/GpL16-k0 (=100)	B6
			114 % of GpH7-A5/GpH7-B3/GpL16-k0 (=100)	66 % of GpH7-A5/GpH7-B3/GpL16-k0 (=100)	B7
			114 % of GpH7-A5/GpH7-B3/GpL16-k0 (=100)	81.9 % of GpH7-A5/GpH7-B3/GpL16-k0 (=100)	B8
